Values joined by “and” are separate entries in the source; they are usually repeats but may differ in a detail not shown here. Equal values may be shown once.

Data on 13 proteins can be found in FireProtDB.

For this data set the following is noted: whole UniProt chain shown.
Setting [1] is: Thermus thermophilus (strain ATCC 27634 / DSM 579 / HB8), pH 7.4, 29 °C, Thermal, CD, Potassium phosphate 50 mM, reversible: Yes.
The mark [2] stands for this setting: Thermus thermophilus (strain ATCC 27634 / DSM 579 / HB8), pH 7.4, 35 °C, Thermal, CD, Potassium phosphate 50 mM, reversible: Yes.
The mark [3] stands for this setting: Thermus thermophilus (strain ATCC 27634 / DSM 579 / HB8), pH 7.4, Thermal, absorbance, Potassium buffer.
Setting [4] is: Thermus thermophilus (strain ATCC 27634 / DSM 579 / HB8), pH 7.5, 25 °C, GdnHCl, Fluorescence, tris-HCl 20 mM, reversible: yes.
[5] abbreviates: Streptomyces tendae, pH 2, Thermal, DSC, Sodium phosphate 10 mM, Na2SO4 10 mM, reversible: yes.
Setting [6] is: Streptomyces tendae, pH 5, 25 °C, Thermal, DSC, Sodium phosphate 10 mM, Na2SO4 10 mM, reversible: yes.
The mark [7] stands for this setting: Streptomyces tendae, pH 7, Thermal, DSC, Sodium phosphate 10 mM, Na2SO4 10 mM, reversible: yes.
The mark [8] stands for this setting: Vibrio harveyi, pH 7, 18 °C, Urea, CD, phosphate 50 mM, reversible: yes.
The mark [9] stands for this setting: Sus scrofa, pH 6.5, 20 °C, GdnHCl, Fluorescence, MES-NaOH 20 mM, NaCl 100 mM, reversible: yes.
Where [10] appears, read: Thermus thermophilus, pH 7, 25 °C, GdnHCl, CD, Potassium phosphate 20 mM, potassium chloride 50 mM.

B1: Inorganic pyrophosphatase wild type, P50308 (protein)
chain: MKLSPGKNAPDVVNVLVEIPQGSNIKYEYDDEEGVIKVDRVLYTSMNYPFNYGFIPGTLEEDGDPLDVLVITNYQLYPGSVIEVRPIGILYMKDEEGEDAKIVAVPKDKTDPSFSNIKDINDLPQATKNKIVHFFEHYKELEPGKYVKISGWGSATEAKNRIQLAIKRVSGGQ
The term Tm denotes the temperature at which the thermal transition is half complete. Consider B1, for which the Tm came to 98 °C (Sulfolobus acidocaldarius (strain ATCC 33909 / DSM 639 / JCM 8929 / NBRC 15157 / NCIMB 11770), pH 7, Thermal, CD, HEPES 20 mM, MgCl2 5 mM) and 89 °C (Sulfolobus acidocaldarius (strain ATCC 33909 / DSM 639 / JCM 8929 / NBRC 15157 / NCIMB 11770), pH 7, Thermal, CD, HEPES 20 mM).

B2: wild type, Q53W59 (protein)
chain: MKRLSLREAWPYLKDLQQDPLAVLLEWGRAHPRLFLPLPRFPLALIFDPEGVEGALLAEGTTKATFQYRALSRLTGRGLLTDWGKSWKEARKALKDPFLPKSVRGYREAMEEEAWAFFGEWRGEERDLDHEMLALSLRLLGRALFGKPLSPSLAEHALKALDRIMAQTRSPLALLDLAAEARFRKDRGALYREAEALIVHPPLSHLPRERALSEAVTLLVAGHETVASALTWSFLLLSHRPDWQKRVAESEEAALAAFQEALRLYPPAWILTRRLERPLLLGEDRLPQGTTLVLSPYVTQRLYFPEGEAFQPERFLAERGTPSGRYFPFGLGQRLCLGRDFALLEGPIVLRAFFRRFRLDPLPFPRVLAQVTLRPEGGLPARPREGVRA
For B2, under setting [1], the “heat capacity change of unfolding” value came out at 1.15 kcal/mol/K, the “unfolding enthalpy (van 't Hoff)” value is 71 kcal/mol and the unfolding free energy was found to be 5.74 kcal/mol. Under setting [2], the “heat capacity change of unfolding” value stood at 1.17 kcal/mol/K, the “unfolding enthalpy (van 't Hoff)” value turned out to be 61.7 kcal/mol and the unfolding free energy came out at 4.3 kcal/mol. The Tm (Thermus thermophilus (strain ATCC 27634 / DSM 579 / HB8), pH 7.4, Thermal, CD, Potassium phosphate 50 mM, reversible: Yes) is 87 °C and 83.7 °C. Under setting [3], the Tm stood at 88 °C, the “heat capacity change of unfolding” value turned out to be 1.14 kcal/mol/K and the “unfolding enthalpy (calorimetric)” value was found to be 71 kcal/mol.

B3: Phosphoglycerate kinase wild type, P09403 (protein)
chain: MRTLLDLDPKGKRVLVRVDYNVPVQDGKVQDETRILESLPTLRHLLAGGASLVLLSHLGRPKGPDPKYSLAPVGEALRAHLPEARFAPFPPGSEEARREAEALRPGEVLLLENVRFEPGEEKNDPELSARYARLGEAFVLDAFGSAHRAHASVVGVARLLPAYAGFLMEKEVRALSRLLKDPERPYAVVLGGAKVSDKIGVIESLLPRIDRLLIGGAMAFTFLKALGGEVGRSLVEEDRLDLAKDLLGRAEALGVRVYLPEDVVAAERIEAGVETRVFPARAIPVPYMGLDIGPKTREAFARALEGARTVFWNGPMGVFEVPPFDEGTLAVGQAIAALEGAFTVVGGGDSVAAVNRLGLKERFGHVSTGGGASLEFLEKGTLPGLEVLEG
B3: under setting [4], the denaturant m value turned out to be 2.7 kcal/mol/M, the “denaturant midpoint (higher = more stable)” value is 2.34 M and the unfolding free energy came out at 6.32 kcal/mol.

B4: Alpha-amylase inhibitor HOE-467A wild type, P01092 (protein)
chain: MRVRALRLAALVGAGAALALSPLAAGPASADTTVSEPAPSCVTLYQSWRYSQADNGCAQTVTVKVVYEDDTEGLCYAVAPGQITTVGDGYIGSHGHARYLARCL
B4: under setting [5], the Tm is 68.3 °C, the “heat capacity change of unfolding” value came to 0.69 kcal/mol/K and the “unfolding enthalpy (calorimetric)” value was determined as 56.4 kcal/mol. Under setting [6], the “heat capacity change of unfolding” value was 0.69 kcal/mol/K, the “unfolding enthalpy (calorimetric)” value amounted to 26.3 kcal/mol and the unfolding free energy worked out at 6.7 kcal/mol. Under setting [7], the melting temperature (Tm) was 81.6 °C, the “heat capacity change of unfolding” value was found to be 0.69 kcal/mol/K and the “unfolding enthalpy (calorimetric)” value is 65.6 kcal/mol.

B5: Protein GrpE wild type, Q56236 (protein)
chain: MEERNHENTLEKDLEAVGQEAQALEERLKAAEEELKGLKDKYLRLLADFDNYRKRMEEELKAREREGVLKALRALLPVLDDLDRALEFAEASPESIRQGVRAIRDGFFRILAGLGVEEVPGEGEAFDPRYHEAVGLLPGEPGKVAKVFQRGFRMGEALVRPARVAVGEEKREEADLE
As to B5, the unfolding free energy (Thermus thermophilus (strain ATCC 27634 / DSM 579 / HB8), pH 7.5, 25 °C, GdnHCl, CD, Tris-HCl 20 mM, KCl 100 mM, reversible: yes) came to 4.13 kcal/mol. The Tm (Thermus thermophilus (strain ATCC 27634 / DSM 579 / HB8), pH 7.5, Thermal, DSC, Hepes-NaOH 20 mM, KCl 100 mM, reversible: yes) is 106 °C.

B6: Cytochrome P450 119 wild type, Q55080 (protein)
chain: MYDWFSEMRKKDPVYYDGNIWQVFSYRYTKEVLNNFSKFSSDLTGYHERLEDLRNGKIRFDIPTRYTMLTSDPPLHDELRSMSADIFSPQKLQTLETFIRETTRSLLDSIDPREDDIVKKLAVPLPIIVISKILGLPIEDKEKFKEWSDLVAFRLGKPGEIFELGKKYLELIGYVKDHLNSGTEVVSRVVNSNLSDIEKLGYIILLLIAGNETTTNLISNSVIDFTRFNLWQRIREENLYLKAIEEALRYSPPVMRTVRKTKERVKLGDQTIEEGEYVRVWIASANRDEEVFHDGEKFIPDRNPNPHLSFGSGIHLCLGAPLARLEARIAIEEFSKRFRHIEILDTEKVPNEVLNGYKRLVVRLKSNE
For the protein B6, the Tm (Sulfolobus acidocaldarius (strain ATCC 33909 / DSM 639 / JCM 8929 / NBRC 15157 / NCIMB 11770), pH 7.4, Thermal, absorbance, Tris) was found to be 91 °C.

B7: Alkanal monooxygenase alpha chain wild type, P07740 (protein)
chain: MKFGNFLLTYQPPELSQTEVMKRLVNLGKASEGCGFDTVWLLEHHFTEFGLLGNPYVAAAHLLGATETLNVGTAAIVLPTAHPVRQAEDVNLLDQMSKGRFRFGICRGLYDKDFRVFGTDMDNSRALMDCWYDLMKEGFNEGYIAADNEHIKFPKIQLNPSAYTQGGAPVYVVAESASTTEWAAERGLPMILSWIINTHEKKAQLDLYNEVATEHGYDVTKIDHCLSYITSVDHDSNRAKDICRNFLGHWYDSYVNATKIFDDSDQTKGYDFNKGQWRDFVLKGHKDTNRRIDYSYEINPVGTPEECIAIIQQDIDATGIDNICCGFEANGSEEEIIASMKLFQSDVMPYLKEKQ
Take B7: the denaturant m value under setting [8] was 2.26 kcal/mol/M and 2.18 kcal/mol/M; the denaturant m value (Vibrio harveyi, pH 7, 18 °C, Urea, Fluorescence, NaH2PO4-K2HPO4 50 mM, transition: 3, reversible: yes) is 2.38 kcal/mol/M and 3.99 kcal/mol/M; the denaturant m value (Vibrio harveyi, pH 7, 18 °C, Urea, Fluorescence, phosphate 50 mM, reversible: yes) came to 2.47 kcal/mol/M. Moreover, the unfolding free energy under setting [8] was 2.36 kcal/mol and 6.04 kcal/mol.

B8: Glutathione S-transferase omega-1 wild type, Q9N1F5 (protein)
chain: MSGGSARSLGKGSAPPGPVPEGLIRVYSMRFCPFAQRTLLVLNAKGIRHQVININLKNKPEWFFQKNPSGLVPVLENSQGQLIYESAITCEYLDEAYPGKKLLPDDPYEKACQKMVFELSSKVPPLLIRFIRRENEADCSGLKEELRKEFSKLEEVLTKKKTTYFGGSSLSMIDYLIWPWFERLEALELNECIDHTPKLKLWMAAMMKDPAVSALHIEPRDLRAFNDLYLQNSPEACDYGL
Take B8: the denaturant m value runs as follows: under setting [9], 11.1 kcal/mol/M; (Sus scrofa, pH 6.5, 20 °C, Urea, Fluorescence, MES-NaOH 20 mM, NaCl 100 mM, reversible: yes) 4.6 kcal/mol/M. Moreover, the unfolding free energy under setting [9] was determined as 23.3 kcal/mol.

B9: Pilin wild type, Q9A1S2 (protein)
chain: MKLRHLLLTGAALTSFAATTVHGETVVNGAKLTVTKNLDLVNSNALIPNTDFTFKIEPDTTVNEDGNKFKGVALNTPMTKVTYTNSDKGGSNTKTAEFDFSEVTFEKPGVYYYKVTEEKIDKVPGVSYDTTSYTVQVHVLWNEEQQKPVATYIVGYKEGSKVPIQFKNSLDSTTLTVKKKVSGTGGDRSKDFNFGLTLKANQYYKASEKVMIEKTTKGGQAPVQTEASIDQLYHFTLKDGESIKVTNLPVGVDYVVTEDDYKSEKYTTNVEVSPQDGAVKNIAGNSTEQETSTDKDMTITFTNKKDFEVPTGVAMTVAPYIALGIVAVGGALYFVKKKNA
As for B9, for the setting “Streptococcus pyogenes serotype M1, pH 8, Thermal, CD, potassium phosphate buffer 10 mM, transition: 2”, the Tm was 85.1 °C.

B10: Streptogrisin-B wild type, P00777 (protein)
chain: MRIKRTSNRSNAARRVRTTAVLAGLAAVAALAVPTANAETPRTFSANQLTAASDAVLGADIAGTAWNIDPQSKRLVVTVDSTVSKAEINQIKKSAGANADALRIERTPGKFTKLISGGDAIYSSTGRCSLGFNVRSGSTYYFLTAGHCTDGATTWWANSARTTVLGTTSGSSFPNNDYGIVRYTNTTIPKDGTVGGQDITSAANATVGMAVTRRGSTTGTHSGSVTALNATVNYGGGDVVYGMIRTNVCAEPGDSGGPLYSGTRAIGLTSGGSGNCSSGGTTFFQPVTEALSAYGVSVY
Regarding B10, the unfolding free energy (Streptomyces griseus, pH 5, 0 °C, GdnHCl, Fluorescence, potassium acetate 10 mM) was 0.71 kcal/mol.

B11: Triosephosphate isomerase, glycosomal wild type, P04789 (protein)
chain: MSKPQPIAAANWKCNGSQQSLSELIDLFNSTSINHDVQCVVASTFVHLAMTKERLSHPKFVIAAQNAIAKSGAFTGEVSLPILKDFGVNWIVLGHSERRAYYGETNEIVADKVAAAVASGFMVIACIGETLQERESGRTAVVVLTQIAAIAKKLKKADWAKVVIAYEPVWAIGTGKVATPQQAQEAHALIRSWVSSKIGADVAGELRILYGGSVNGKNARTLYQQRDVNGFLVGGASLKPEFVDIIKATQ
Consider B11, for which the Tm was 52.2 °C (Trypanosoma brucei brucei, pH 7, Thermal, CD, 3-(N-morpholino)propanesulfonic acid/dithiothreitol 20 mM/0.02 mM, EDTA 0.02 mM); 51.4 °C (Trypanosoma brucei brucei, pH 7.4, Thermal, CD, MOPS 20 mM, EDTA 1 mM, reversible: no); 44 °C and 48 °C (Trypanosoma brucei brucei, pH 7.5, Thermal, CD, TEA 0.9 mM, NaCl 1.2 mM).

B12: Divalent-cation tolerance protein CutA wild type, Q7SIA8 (protein)
chain: MEEVVLITVPSEEVARTIAKALVEERLAACVNIVPGLTSIYRWQGEVVEDQELLLLVKTTTHAFPKLKERVKALHPYTVPEIVALPIAEGNREYLDWLRENTG
Take B12: the Tm (Thermus thermophilus (strain ATCC 27634 / DSM 579 / HB8), pH 7, Thermal, DSC, potassium phosphate 50 mM, reversible: No) was determined as 113 °C.

B13: Small ribosomal subunit protein bS6 wild type, P23370 (protein)
chain: MRRYEVNIVLNPNLDQSQLALEKEIIQRALENYGARVEKVEELGLRRLAYPIAKDPQGYFLWYQVEMPEDRVNDLARELRIRDNVRRVMVVKSQEPFLANA
With B13, under setting [10], the denaturant m value worked out at 2.5 kcal/mol/M and the unfolding free energy came out at 8.5 kcal/mol.
